PMC7614968

Target: SteD (untagged, HIS tag cleaved) (Salmonella enterica serovar Typhimurium (14028s))
Assay: SEC-MALS; co-purified untagged SteD-SrcA complex at 8 mg/ml on analytical Superdex200 in the dialysis buffer (20 mM phosphate pH 6.8, 150 mM NaCl, 5 % glycerol, 1 mM DTT), 0.4 ml/min

SrcA (untagged, recombinant) (natural protein)
stoichiometry N (SrcA molecules per SteD molecule): 2
